# doi:10.1101/244665 (bioRxiv, 2019)
# B1: PfA-M17(Δ388–389) (enzyme, Plasmodium falciparum, UniProt Q8IL11 85-605, looked up)
# chain: ASEVPQVVSLDPTSIPIEYNTPIHDIKVQVYDIKGGCNVEEGLTIFLVNNPGKENGPVKISSKVNDKNVSEFLKDENMEKFNVKLGTSKHFYMFNDNKNSVAVGYVGCGSVADLSEADMKRVVLSLVTMLHDNKLSKLTVVFEINVDKNLFRFFLETLFYEYMTDERFKSTDKNVNMEYIKHLGVYINNADTYKEEVEKARVYYFGTYYASQLIAAPSNYCNPVSLSNAAVELAQKLNLEYKILGVKELEELKMGAYLSVGKGSMYPNKFIHLTYKSKGDVKKKIALVGKGITFDSGGYNLKAGSMIDLMKFDMSGCAAVLGCAYCVGTLKPENVEIHFLSAVCENMVSKNSYRPGDIITASNGKTIEVGNTDAEGRLTLADALVYAEKLGVDYIVDIATLTGAMLYSLGTSYAGVFGNNEELINKILNSSKTSNEPVWWLPIINEYRATLNSKYADINNISSSVKASSIVASLFLKEFVQNTAWAHIDIAGVSWNFKARKPKGFGVRLLTEFVLNDAL
# B2: Plasmodium falciparum M17 aminopeptidase (PfA-M17), wild type, truncated (amino acids 85-605) (enzyme, UniProt Q8IL11 85-605, looked up)
# chain: ASEVPQVVSLDPTSIPIEYNTPIHDIKVQVYDIKGGCNVEEGLTIFLVNNPGKENGPVKISSKVNDKNVSEFLKDENMEKFNVKLGTSKHFYMFNDNKNSVAVGYVGCGSVADLSEADMKRVVLSLVTMLHDNKLSKLTVVFEINVDKNLFRFFLETLFYEYMTDERFKSTDKNVNMEYIKHLGVYINNADTYKEEVEKARVYYFGTYYASQLIAAPSNYCNPVSLSNAAVELAQKLNLEYKILGVKELEELKMGAYLSVGKGSMYPNKFIHLTYKSKGDVKKKIALVGKGITFDSGGYNLKAAPGSMIDLMKFDMSGCAAVLGCAYCVGTLKPENVEIHFLSAVCENMVSKNSYRPGDIITASNGKTIEVGNTDAEGRLTLADALVYAEKLGVDYIVDIATLTGAMLYSLGTSYAGVFGNNEELINKILNSSKTSNEPVWWLPIINEYRATLNSKYADINNISSSVKASSIVASLFLKEFVQNTAWAHIDIAGVSWNFKARKPKGFGVRLLTEFVLNDAL
# B3: PfA-M17(A387P) (enzyme, Plasmodium falciparum, UniProt Q8IL11 85-605, looked up)
# chain: ASEVPQVVSLDPTSIPIEYNTPIHDIKVQVYDIKGGCNVEEGLTIFLVNNPGKENGPVKISSKVNDKNVSEFLKDENMEKFNVKLGTSKHFYMFNDNKNSVAVGYVGCGSVADLSEADMKRVVLSLVTMLHDNKLSKLTVVFEINVDKNLFRFFLETLFYEYMTDERFKSTDKNVNMEYIKHLGVYINNADTYKEEVEKARVYYFGTYYASQLIAAPSNYCNPVSLSNAAVELAQKLNLEYKILGVKELEELKMGAYLSVGKGSMYPNKFIHLTYKSKGDVKKKIALVGKGITFDSGGYNLKPAPGSMIDLMKFDMSGCAAVLGCAYCVGTLKPENVEIHFLSAVCENMVSKNSYRPGDIITASNGKTIEVGNTDAEGRLTLADALVYAEKLGVDYIVDIATLTGAMLYSLGTSYAGVFGNNEELINKILNSSKTSNEPVWWLPIINEYRATLNSKYADINNISSSVKASSIVASLFLKEFVQNTAWAHIDIAGVSWNFKARKPKGFGVRLLTEFVLNDAL
# B4: PfA-M17(Δ388–390) (enzyme, Plasmodium falciparum, UniProt Q8IL11 85-605, looked up)
# chain: ASEVPQVVSLDPTSIPIEYNTPIHDIKVQVYDIKGGCNVEEGLTIFLVNNPGKENGPVKISSKVNDKNVSEFLKDENMEKFNVKLGTSKHFYMFNDNKNSVAVGYVGCGSVADLSEADMKRVVLSLVTMLHDNKLSKLTVVFEINVDKNLFRFFLETLFYEYMTDERFKSTDKNVNMEYIKHLGVYINNADTYKEEVEKARVYYFGTYYASQLIAAPSNYCNPVSLSNAAVELAQKLNLEYKILGVKELEELKMGAYLSVGKGSMYPNKFIHLTYKSKGDVKKKIALVGKGITFDSGGYNLKASMIDLMKFDMSGCAAVLGCAYCVGTLKPENVEIHFLSAVCENMVSKNSYRPGDIITASNGKTIEVGNTDAEGRLTLADALVYAEKLGVDYIVDIATLTGAMLYSLGTSYAGVFGNNEELINKILNSSKTSNEPVWWLPIINEYRATLNSKYADINNISSSVKASSIVASLFLKEFVQNTAWAHIDIAGVSWNFKARKPKGFGVRLLTEFVLNDAL
# Molecular target: the molecule itself
# Assay: SEC
row,Protein,stoichiometry N
1,B1,6
2,B2,6
3,B3,6
4,B4,6
